Holding throughout (assay): purified protein, by the assay type
Common to all, as to details: other: glucose ester formation; pH 7.0; 30.0 °C

Substrate in series [1]: O=C(O)/C=C/c1ccc(O)cc1
Substrate in series [2]: O=C(O)C=Cc1ccccc1
Substrate in series [3]: COc1cc(/C=C/C(=O)O)ccc1O

B1: recombinant GTase A911 (Arabidopsis thaliana) (protein)
chain: MGSSEGQETHVLMVTLPFQGHINPMLKLAKHLSLSSKNLHINLATIESARDLLSTVEKPRYPVDLVFFSDGLPKEDPKAPETLLKSLNKVGAMNLSKIIEEKRYSCIISSPFTPWVPAVAASHNISCAILWIQACGAYSVYYRYYMKTNSFPDLEDLNQTVELPALPLLEVRDLPSFMLPSGGAHFYNLMAEFADCLRYVKWVLVNSFYELESEIIESMADLKPVIPIGPLVSPFLLGDGEEETLDGKNLDFCKSDDCCMEWLDKQARSSVVYISFGSMLETLENQVETIAKALKNRGLPFLWVIRPKEKAQNVAVLQEMVKEGQGVVLEWSPQEKILSHEAISCFVTHCGWNSTMETVVAGVPVVAYPSWTDQPIDARLLVDVFGIGVRMRNDSVDGELKVEEVERCIEAVTEGPAAVDIRRRAAELKRVARLALAPGGSSTRNLDLFISDITIA
Broadly, the Km is the concentration of substrate that gives half-maximal velocity. For B1, the Km stood at 390 µM in series [1], 50 µM in series [2] and 340 µM in series [3]. Moreover, the Vmax in series [1] turned out to be 11.10 nkat/mg.
